Our source for the peptide-protein ratio values is patent US20100015130A1 (MIT, published 2010).

The assay deals with GSK3β as used in the surface plasmon resonance (SPR) binding assays (Homo sapiens (Human), UniProt P49841 1-420). The assay can be described thus: SPR, stoichiometry inferred from the response. Here is the method:
Surface plasmon resonance (SPR) was used to determine whether peptide 2 directly binds to GSK3β. GSK3β SPR binding assays were carried out with peptide 1, peptide 2, the GSK3β inhibitor L803-MTS, and as a negative control, a peptide from the N-type calcium channel, CACNA1B (FIG. 6A). […] To identify the peptide 2 sequences that mediate this interaction with GSK3β, we designed overlapping 15-mer peptides that covered peptide 2 and tested their binding to GSK3β SPR (FIG. 16B).
On the technique in general: Surface plasmon resonance follows binding to a sensor surface in real time, without labels.

Chain of GSK3β as used in the surface plasmon resonance (SPR) binding assays (P49841 whole entry, form in doubt): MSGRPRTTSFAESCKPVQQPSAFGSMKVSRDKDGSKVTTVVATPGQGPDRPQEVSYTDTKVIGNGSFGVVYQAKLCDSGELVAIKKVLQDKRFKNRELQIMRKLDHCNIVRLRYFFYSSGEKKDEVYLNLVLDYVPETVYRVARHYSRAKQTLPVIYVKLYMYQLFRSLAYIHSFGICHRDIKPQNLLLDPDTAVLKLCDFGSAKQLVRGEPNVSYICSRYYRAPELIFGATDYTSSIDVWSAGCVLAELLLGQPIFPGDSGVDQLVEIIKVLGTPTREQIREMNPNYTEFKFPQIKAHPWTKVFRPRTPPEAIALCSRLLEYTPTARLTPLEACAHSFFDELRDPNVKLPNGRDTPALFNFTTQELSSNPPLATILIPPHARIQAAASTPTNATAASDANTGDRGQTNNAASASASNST

Regarding PADIASLPGFQDTFTSSFSFIQLSLGAAGERGEAEGCLPSREAE (Synthetic peptide (Chi Scientific)) [Mouse DISC1 peptide 2 (195-238aa)], the peptide-protein ratio is 2 peptide:protein.

B1: Murine DISC1 peptide 3 (15-mer, mDISC1 amino acids 211 to 225) (peptide)
peptide: SFSFIQLSLGAAGER
notes: One of the overlapping 15-mer peptides that cover peptide 2; also called number 43; DISCtide2
As for B1, the peptide-protein ratio is 2 peptide:protein.
